# Assay results taken from US20160264648A1 (OSAKA UNIVERSITY, published 2016).
# Experiments:
# [1] = molecular target: hemagglutinin (HA) of influenza A virus A/Suita/104/2011 (H1N1pdm) (influenza A virus A/Suita/104/2011 (H1N1pdm)); test: cell-based or functional assay
# [2] = molecular target: hemagglutinin (HA) of influenza A virus A/PR8/1934 (seasonal H1N1) (influenza A virus A/PR8/1934 (H1N1sea)) (UniProt P03452); test: cell-based or functional assay
# [3] = molecular target: hemagglutinin (HA) of influenza A virus A/Turkey/Wisconsin/1/1966 (H9N2) (influenza A virus A/Turkey/Wisconsin/1/1966 (H9N2)) (UniProt P03457); test: cell-based or functional assay
# [4] = molecular target: hemagglutinin (HA) of influenza A virus A/Suita/105/2011 (H1N1pdm) (influenza A virus A/Suita/105/2011 (H1N1pdm)); test: cell-based or functional assay
# [5] = molecular target: hemagglutinin (HA) of influenza A virus A/Brisbane/59/2007 (seasonal H1N1) (influenza A virus A/Brisbane/59/2007 (H1N1sea)); test: cell-based or functional assay
# [6] = molecular target: hemagglutinin (HA) of influenza A virus A/Suita/117/2011 (H1N1pdm) (influenza A virus A/Suita/117/2011 (H1N1pdm)); test: cell-based or functional assay
# [7] = molecular target: hemagglutinin (HA) of influenza A virus A/Osaka/168/2009 (H1N1pdm) (influenza A virus A/Osaka/168/2009 (H1N1pdm)); test: cell-based or functional assay
# [8] = molecular target: hemagglutinin (HA) of influenza A virus A/Duck/Egypt/D1Br12/2007 (H5N1) (influenza A virus A/Duck/Egypt/D1Br12/2007 (H5N1)); test: cell-based or functional assay
# [9] = molecular target: hemagglutinin (HA) of influenza A virus A/Chicken/Egypt/R1MD12-3/2008 (H5N1) (influenza A virus A/Chicken/Egypt/RIMD12-3/2008 (H5N1)); test: cell-based or functional assay
# [10] = molecular target: hemagglutinin (HA) of influenza A virus A/PR8/1934 (seasonal H1N1) (influenza A virus A/PR8/1934 (H1N1sea), UniProt P03452 18-565); test: cell-based or functional assay
# [11] = molecular target: hemagglutinin (HA) of influenza A virus A/Turkey/Wisconsin/1/1966 (H9N2) (influenza A virus …, UniProt P03457 19-560); test: cell-based or functional assay
# [12] = molecular target: hemagglutinin (HA) of influenza A virus A/Aichi/2/1968 (H3N2) (influenza A virus A/Aichi/2/1968 (H3N2), UniProt P03437 17-566); test: IFA on virus-infected MDCK cells
Molecule,Neutralization activity (VN50 value µg/ml) [1],Neutralization activity (VN50 value µg/ml) [2],Neutralization activity (VN50 value µg/ml) [3],Neutralization activity (VN50 value µg/ml) [4],Neutralization activity (VN50 value µg/ml) [5],Neutralization activity (VN50 value µg/ml) [6],Neutralization activity (VN50 value µg/ml) [7],Neutralization activity (VN50 value µg/ml) [8],Neutralization activity (VN50 value µg/ml) [9],Neutralization activity (VN50 value µg/ml) [10],Neutralization activity (VN50 value µg/ml) [11],binding result [12]
mouse MAb C179 capable of exhibiting a broad reactivity with HAs belonging to group 1 (antibody),5.98 µg/mL,3.1 µg/mL,5.53 µg/mL,3.11 µg/mL,5.57 µg/mL,5.73 µg/mL,5.68 µg/mL,–,–,–,–,–
"human monoclonal antibody (HuMAb) 1H11 (antibody, V domains shown) VH: QVQLVQSGAEVKKPGSSVKVSCKSSGGNFNNYAVSWVRQAPGQGLEWMGGISPIFGSTNHAQKFQGRVTISADIFTNTAYMELSSLRSDDTAIYYCARGRGYYFYHAMDVWGQGSTVTVSS VL: QSALTQPASVSGSPGQSITISCTGTSSDVGGYNYVSWYQQHPGEAPKLMISDVSNRPSGVSNRFSGSKSGNTASLTISGLQAEDEADYYCTSYTSSNTLVFGGGTKLTVL",11.3 µg/mL,–,–,11.4 µg/mL,2.89 µg/mL,11.6 µg/mL,0.78 µg/mL,6.08 µg/mL,6.12 µg/mL,2.87 µg/mL,11.8 µg/mL,no binding
"human monoclonal antibody (HuMAb) 2H5 (antibody, V domains shown) VH: QVQLVQSGAEVKKPGSSVKVSCKSSGGNFNNYAVSWVRQAPGQGLEWMGGISPIFGSTNHAQKFQGRVTISADIFTNTAYMELSSLRSDDTAIYYCARGRGYYFYHAMDVWGQGSTVTVSS VL: QSVLTQPPSVSAAPGQKVTISCSGSSSNIGHNFVSWYQQLPATAPKLLIYDTDKRPSGIPDRFSGSKSGTSATLGITGLQTGDEADYYCGTWDSSLSSVIFGGGTKLTVL",6 µg/mL,–,–,6.21 µg/mL,5.53 µg/mL,6.03 µg/mL,1.51 µg/mL,6.05 µg/mL,11.7 µg/mL,5.83 µg/mL,> 100 µg/mL,no binding
